From patent publication US20260183373A1 come the findings set out here.

Test [1] deals with Aβ(1-42) (UniProt P05067).
For test [2], the target named is Aβ(1-40) (UniProt P05067).
For test [3], the target named is Aβ(1-42) (UniProt P05067). The experiment in a line: cell-based or functional assay.
In test [4] the target is Aβ(1-40) (UniProt P05067). The experiment in a line: cell-based or functional assay.
Test [5] concerns the target Aβ(1-42) (UniProt P05067). This is another data set of the same source.
Test [6] has as its target Aβ(1-40) (UniProt P05067). This is another data set of the same source.

Sequence of neprolysin (NEP) (P08473 52-750 limits assumed): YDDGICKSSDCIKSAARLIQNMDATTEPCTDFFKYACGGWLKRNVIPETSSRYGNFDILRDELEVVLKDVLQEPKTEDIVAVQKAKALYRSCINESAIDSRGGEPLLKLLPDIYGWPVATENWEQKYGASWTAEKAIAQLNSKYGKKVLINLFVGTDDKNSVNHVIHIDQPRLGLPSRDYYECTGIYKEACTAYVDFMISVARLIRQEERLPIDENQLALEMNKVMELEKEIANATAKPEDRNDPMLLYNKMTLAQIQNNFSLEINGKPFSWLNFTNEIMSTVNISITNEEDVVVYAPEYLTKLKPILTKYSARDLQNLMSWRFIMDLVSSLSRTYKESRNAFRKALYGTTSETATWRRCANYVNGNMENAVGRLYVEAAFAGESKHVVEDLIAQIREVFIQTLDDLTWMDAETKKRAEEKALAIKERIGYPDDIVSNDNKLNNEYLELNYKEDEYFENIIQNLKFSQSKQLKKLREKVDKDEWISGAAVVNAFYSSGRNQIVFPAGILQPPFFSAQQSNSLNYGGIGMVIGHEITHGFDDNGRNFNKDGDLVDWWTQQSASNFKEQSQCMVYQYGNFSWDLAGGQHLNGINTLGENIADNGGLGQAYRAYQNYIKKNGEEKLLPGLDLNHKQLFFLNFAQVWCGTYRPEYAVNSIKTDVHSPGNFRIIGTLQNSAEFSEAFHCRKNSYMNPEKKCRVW
Sequence of MMP2 (enzyme) (P08253 110-660): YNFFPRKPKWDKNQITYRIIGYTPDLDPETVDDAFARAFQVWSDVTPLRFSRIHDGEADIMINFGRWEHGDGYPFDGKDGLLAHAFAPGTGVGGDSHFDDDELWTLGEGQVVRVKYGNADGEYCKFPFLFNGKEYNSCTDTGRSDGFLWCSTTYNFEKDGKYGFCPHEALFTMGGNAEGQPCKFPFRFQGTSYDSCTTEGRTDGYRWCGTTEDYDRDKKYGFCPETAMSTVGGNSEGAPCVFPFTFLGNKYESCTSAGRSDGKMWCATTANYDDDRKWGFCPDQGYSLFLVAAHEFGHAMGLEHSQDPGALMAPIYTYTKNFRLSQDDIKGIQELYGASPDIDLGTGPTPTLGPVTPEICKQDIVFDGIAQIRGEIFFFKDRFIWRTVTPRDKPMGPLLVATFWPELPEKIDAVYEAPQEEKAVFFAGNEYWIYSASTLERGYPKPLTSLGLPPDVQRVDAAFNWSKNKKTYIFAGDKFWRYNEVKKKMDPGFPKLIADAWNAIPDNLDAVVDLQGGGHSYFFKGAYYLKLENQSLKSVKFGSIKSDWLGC

The substance “neprolysin (NEP) (from UniProt P08473 52-750) (enzyme)” yielded an EC50 of Aβ(1-42) cleavage (intact Aβ by ELISA) with Aβ(1-42) [1] of 44 nM. In the test with Aβ(1-40) [2], this substance came in with an EC50 of Aβ(1-40) cleavage (intact Aβ by ELISA) of 19 nM. Further, the EC50 of Aβ cleavage (ELISA-based assay of intact Aβ) in the test with Aβ(1-42) [3] and with Aβ(1-40) [4] was 12 nM each time.

As to “insulin-degrading enzyme (IDE) (from UniProt P14735 42-1019)”, the EC50 of Aβ cleavage (ELISA-based assay of intact Aβ) with Aβ(1-42) [3] and with Aβ(1-40) [4] was 0.1 nM in each case.

Broadly, the EC50 (read off the curve) is the concentration at which the effect is half-maximal. A low value points to higher potency in that assay. NEP2 (enzyme): the figures for the EC50 (read off the curve) with Aβ(1-42) [5] and with Aβ(1-40) [6] were 60 nM and 50 nM, respectively.

The substance MMP2 (enzyme) displayed an EC50 (read off the curve) in the test with Aβ(1-40) [6] of 90 nM.
